From patent US20200199241A1 (Chugai, published 2020)
Residue numbers refer to the chain shown, from its start.

B1: IL6R-2B253/IL6R-L (antibody, human IgG1)
heavy: QVQLQESGPGLVKPSETLSLTCAVSGHSISHDHAWSWVRQPPGEGLEWIGFISYSGITNYNPSLQGRVTISRDNSKNTLYLQMNSLRAEDTAVYYCARSLARTTAMDYWGEGTLVTVSSASTKGPSVFPLAPSSKSTSGGTAALGCLVKDYFPEPVTVSWNSGALTSGVHTFPAVLQSSGLYSLSSVVTVPSSSLGTQTYICNVNHKPSNTKVDKKVEPKSCDKTHTCPPCPAPDLLGGDSVFLFPPKPKDTLMISRTPEVTCVVVDVSHEDPEVKFNWYVDGVEVHNAKTKPREEQYNSTYRVVSVLTVLHQDWLNGKEYKCKMSNKALPAPIEKTISKAKGQPREPQVYTLPPSRDELTKNQVSLTCLVKGFYPSDIAVEWESNGQPENNYKTTPPVLDSDGSFFLYSKLTVDKSRWQQGNVFSCSVMHEALHNHYTQESLSLSP
light: DIQMTQSPSSLSASVGDRVTITCRASQDISSYLNWYQQKPGKAPKLLIYYTSRLHSGVPSRFSGSGSGTDFTFTISSLQPEDIATYYCQQGNTLPYTFGQGTKVEIK
notes: IgG1; Fc variant of IL6R-B3; copies: 2 + 2
B2: IL6R-2B261/IL6R-L (antibody, human IgG1)
heavy: B1 heavy with Y298D, M325V
light: B1 light
notes: as for B1
B3: IL6R-BP082/IL6R-L (antibody, human IgG1)
heavy: B1 heavy with M325V, A332K
light: B1 light
notes: as for B1
B4: IL6R-BP083/IL6R-L (antibody, human IgG1)
heavy: B1 heavy with D235E, Y298D, M325V, A332K
light: B1 light
notes: as for B1
B5: IL6R-BP084/IL6R-L (antibody, human IgG1)
heavy: B1 heavy with D235E, A332K
light: B1 light
notes: as for B1
B6: IL6R-BP085/IL6R-L (antibody, human IgG1)
heavy: B1 heavy with D235E, G239D, M325V, A332K
light: B1 light
notes: as for B1
B7: IL6R-BP086/IL6R-L (antibody, human IgG1)
heavy: B1 heavy with D235E, M325V, K328A, A332K
light: B1 light
notes: as for B1
B8: IL6R-BP087/IL6R-L (antibody, human IgG1)
heavy: B1 heavy with D235E, L236Y, M325V, A332K
light: B1 light
notes: as for B1
B9: IL6R-BP088/IL6R-L (antibody, human IgG1)
heavy: B1 heavy with D235E, G239D, M325V, K328A, A332K
light: B1 light
notes: as for B1
B10: IL6R-BP089/IL6R-L (antibody, human IgG1)
heavy: B1 heavy with D235E, L236Y, M325V, K328A, A332K
light: B1 light
notes: as for B1
B11: IL6R-BP129/IL6R-L (antibody, human IgG1)
heavy: B1 heavy with Y298D, M325V, A332K
light: B1 light
notes: as for B1
B12: IL6R-BP131/IL6R-L (antibody, human IgG1)
heavy: B1 heavy with G239D, M325V, A332K
light: B1 light
notes: as for B1
B13: IL6R-BP132/IL6R-L (antibody, human IgG1)
heavy: B1 heavy with M325V, K328A, A332K
light: B1 light
notes: as for B1
B14: IL6R-BP133/IL6R-L (antibody, human IgG1)
heavy: B1 heavy with L236Y, M325V, A332K
light: B1 light
notes: as for B1
B15: IL6R-BP143/IL6R-L (antibody, human IgG1)
heavy: B1 heavy with D235E, L236Y, M325V, K328A
light: B1 light
notes: as for B1
B16: IL6R-BP144/IL6R-L (antibody, human IgG1)
heavy: B1 heavy with D235E, G239D, M325V, K328A
light: B1 light
notes: as for B1
B17: IL6R-BP145/IL6R-L (antibody, human IgG1)
heavy: B1 heavy with D235E, L236Y, G239D, M325V
light: B1 light
notes: as for B1
B18: IL6R-BP148/IL6R-L (antibody, human IgG1)
heavy: B1 heavy with L236Y, G239D, M325V, K328A, A332K
light: B1 light
notes: as for B1
B19: IL6R-BP149/IL6R-L (antibody, human IgG1)
heavy: B1 heavy with L236Y, G239D, Y298D, M325V, K328A, A332K
light: B1 light
notes: as for B1
B20: IL6R-BP151/IL6R-L (antibody, human IgG1)
heavy: B1 heavy with L236Y, G239D, M325V, K328A, A332R
light: B1 light
notes: as for B1
B21: IL6R-BP190/IL6R-L (antibody, human IgG1)
heavy: B1 heavy with D235E, G239D, H270D, P273G, M325V, A332K
light: B1 light
notes: as for B1
B22: IL6R-BP191/IL6R-L (antibody, human IgG1)
heavy: B1 heavy with H270D, P273G, M325V, K328A, A332K
light: B1 light
notes: as for B1
B23: IL6R-BP195/IL6R-L (antibody, human IgG1)
heavy: B1 heavy with L236Y, G239D, H270D, P273G, Y298D, M325V, K328A, A332K
light: B1 light
notes: as for B1
B24: IL6R-BP210/IL6R-L (antibody, human IgG1)
heavy: B1 heavy with D235E, G239D, H270D, P273G, M325V, A332R
light: B1 light
notes: as for B1
B25: IL6R-BP211/IL6R-L (antibody, human IgG1)
heavy: B1 heavy with H270D, P273G, M325V, K328A, A332R
light: B1 light
notes: as for B1
B26: IL6R-BP212/IL6R-L (antibody, human IgG1)
heavy: B1 heavy with H270D, P273G, Y298D, M325V, A332R
light: B1 light
notes: as for B1
B27: IL6R-BP181/IL6R-L (antibody, human IgG1)
heavy: B1 heavy with P273G, M325V, K328A, A332K
light: B1 light
notes: as for B1

What follows are binders tested against T1, FcγRIa (human, UniProt P12314 16-292, limits assumed) (assay: SPR (Biacore), bound amount, IL6R-BF648/IL6R-L = 100).
T1 construct: also called FcgRIa; CD64
T1 sequence (P12314 16-292 limits assumed): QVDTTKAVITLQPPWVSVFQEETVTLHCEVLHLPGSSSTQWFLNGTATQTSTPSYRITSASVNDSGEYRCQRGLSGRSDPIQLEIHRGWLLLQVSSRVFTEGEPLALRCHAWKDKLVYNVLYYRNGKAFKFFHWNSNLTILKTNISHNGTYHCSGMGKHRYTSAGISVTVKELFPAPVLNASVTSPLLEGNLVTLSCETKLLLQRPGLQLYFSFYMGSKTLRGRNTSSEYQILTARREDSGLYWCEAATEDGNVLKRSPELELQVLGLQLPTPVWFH
Experimental: (§1) According to the following method, relative binding activities were calculated for the results of analyzing interactions with the respective FcγRs.

Row | Binder | relative binding activity
1 | B1 | 155 % of control
2 | B2 | 100 % of control
3 | B3 | 74 % of control
4 | B4 | 50 % of control
5 | B5 | 109 % of control
6 | B6 | 19 % of control
7 | B7 | 72 % of control
8 | B8 | 33 % of control
9 | B9 | 25 % of control
10 | B10 | 43 % of control
11 | B11 | 68 % of control
12 | B12 | 33 % of control
13 | B13 | 91 % of control
14 | B14 | 41 % of control
15 | B15 | 86 % of control
16 | B16 | 64 % of control
17 | B17 | 41 % of control
18 | B18 | 33 % of control
19 | B19 | 29 % of control
20 | B20 | 39 % of control
21 | B21 | 50 % of control
22 | B22 | 125 % of control
23 | B23 | 66 % of control
24 | B24 | 57 % of control
25 | B25 | 128 % of control
26 | B26 | 117 % of control

The binders below were run against T2, FcγRIIb (human, UniProt P31994 43-217, limits assumed) in the same assay as above.
T2 construct: also called FcgRIIb; FcγIIB
T2 sequence: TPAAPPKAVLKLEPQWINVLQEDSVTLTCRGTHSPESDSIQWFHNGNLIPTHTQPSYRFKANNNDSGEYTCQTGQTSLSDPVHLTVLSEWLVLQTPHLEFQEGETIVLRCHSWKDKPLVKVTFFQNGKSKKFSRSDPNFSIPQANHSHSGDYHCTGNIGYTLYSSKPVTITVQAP
Experimental: as §1

Row | Binder | relative binding activity
27 | B1 | 156 % of control
28 | B2 | 115 % of control
29 | B3 | 136 % of control
30 | B4 | 122 % of control
31 | B5 | 141 % of control
32 | B6 | 152 % of control
33 | B7 | 137 % of control
34 | B8 | 137 % of control
35 | B9 | 161 % of control
36 | B10 | 147 % of control
37 | B11 | 138 % of control
38 | B13 | 150 % of control
39 | B14 | 137 % of control
40 | B15 | 133 % of control
41 | B16 | 121 % of control
42 | B17 | 152 % of control
43 | B18 | 176 % of control
44 | B19 | 173 % of control
45 | B24 | 187 % of control
46 | B25 | 165 % of control
47 | B26 | 173 % of control

These binders were tested against T3, FcγRIIa type H (human, UniProt P12318 36-217) in the same assay as above.
T3 construct: also called FcγRIIaH; FcγRIIH
T3 sequence: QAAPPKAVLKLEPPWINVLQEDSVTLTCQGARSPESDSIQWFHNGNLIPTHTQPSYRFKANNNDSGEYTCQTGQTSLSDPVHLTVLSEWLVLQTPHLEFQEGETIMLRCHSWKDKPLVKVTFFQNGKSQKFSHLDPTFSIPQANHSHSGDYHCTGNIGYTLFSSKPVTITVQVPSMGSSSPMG
Experimental: as §1

Row | Binder | relative binding activity
48 | B1 | 207 % of control
49 | B2 | 91 % of control
50 | B3 | 106 % of control
51 | B4 | 91 % of control
52 | B5 | 162 % of control
53 | B6 | 158 % of control
54 | B7 | 116 % of control
55 | B8 | 179 % of control
56 | B9 | 166 % of control
57 | B10 | 186 % of control
58 | B11 | 98 % of control
59 | B12 | 253 % of control
60 | B13 | 130 % of control
61 | B14 | 151 % of control
62 | B15 | 143 % of control
63 | B16 | 108 % of control
64 | B17 | 224 % of control
65 | B18 | 462 % of control
66 | B19 | 401 % of control
67 | B20 | 621 % of control
68 | B27 | 150 % of control
69 | B21 | 224 % of control
70 | B22 | 145 % of control
71 | B23 | 344 % of control
72 | B24 | 279 % of control
73 | B26 | 135 % of control

The binders below were run against T4, FcγRIIIa type V (human, UniProt P08637 17-208, limits assumed) in the same assay as above.
T4 construct: also called FcγRIIIaV; FcgRIIIaV
T4 sequence (P08637 other isoform, or with tags, fused parts or gaps limits assumed): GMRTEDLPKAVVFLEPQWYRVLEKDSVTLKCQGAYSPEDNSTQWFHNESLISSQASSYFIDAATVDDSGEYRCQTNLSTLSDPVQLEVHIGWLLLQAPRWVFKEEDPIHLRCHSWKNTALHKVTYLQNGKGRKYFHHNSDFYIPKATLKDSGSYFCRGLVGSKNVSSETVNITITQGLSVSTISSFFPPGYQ
Experimental: as §1

Row | Binder | relative binding activity
74 | B1 | 126 % of control
75 | B2 | 87 % of control
76 | B3 | 67 % of control
77 | B4 | 107 % of control
78 | B5 | 106 % of control
79 | B6 | 104 % of control
80 | B7 | 123 % of control
81 | B8 | 158 % of control
82 | B9 | 122 % of control
83 | B10 | 136 % of control
84 | B11 | 95 % of control
85 | B12 | 118 % of control
86 | B13 | 120 % of control
87 | B14 | 114 % of control
88 | B15 | 114 % of control
89 | B16 | 128 % of control
90 | B17 | 153 % of control
91 | B18 | 227 % of control
92 | B19 | 186 % of control
93 | B20 | 221 % of control
94 | B27 | 122 % of control
95 | B21 | 155 % of control
96 | B22 | 142 % of control
97 | B23 | 221 % of control
98 | B25 | 87 % of control
